42 variants from FireProtDB can be followed below.

First the molecules themselves.
B1: L7I|R17V|A28D|A35R|V49I|E91D|L96F|L97H|T99A|E103I|L110F|S111V|S115E|L120R|H121Y|G123D|T138Q|D139G|E140D|Q144E|A149D|Q165D|D174E|A194E|V217M|Q222G|K234H|E237D|P283A, Q88HV5 (parent)
chain: MPFQQGLLATPVPAHARHLFFTLQSPEALPAALDALLPQVDGKQLLLGVGAPLAKALGREIPGLRPFPLLDAAVENPSTQHALWLWLRGDERGDLLLRTQALEQALAPALSLADSVDGFLHRGGHDLTGYEDGTENPTDEEAVQAAIAADGSSFAAFQLWKHDLQYFKSLPQADQDNIIGRRLSDNEELDDAPASAHVKRTAQESFEPEAFMVRRSVSWADQRGAGLAFVALGKSFEAFEVQLRRMSGLEDGIIDGLYRFSRPLTGGYYWCPPMSETGVDLSPLLRA
B2: FMN-dependent NADH:quinone oxidoreductase 1, Q88IY3 (parent)
chain: MKLLHIDSSILGDNSASRQLSREVVEAWKAADPSVEVVYRDLAADAIAHFSAATLVAAGTPEDVRDAAQAFEAKLSAETLEEFLAADAVVIGAPMYNFTVPTQLKAWIDRVAVAGKTFRYTEAGPQGLCGNKKVVLVSTAGGLHAGQPTGAGHEDFLKVFLGFIGITDLEIVRAHGLAYGPEQRSQAIDAAQAQIASELFAAA
B3: Formate dehydrogenase, O13437 (parent)
chain: MKIVLVLYDAGKHAADEEKLYGCTENKLGIANWLKDQGHELITTSDKEGETSELDKHIPDADIIITTPFHPAYITKERLDKAKNLKLVVVAGVGSDHIDLDYINQTGKKISVLEVTGSNVVSVAEHVVMTMLVLVRNFVPAHEQIINHDWEVAAIAKDAYDIEGKTIATIGAGRIGYRVLERLLPFNPKELLYYDYQALPKEAEEKVGARRVENIEELVAQADIVTVNAPLHAGTKGLINKELLSKFKKGAWLVNTARGAICVAEDVAAALESGQLRGYGGDVWFPQPAPKDHPWRDMRNKYGAGNAMTPHYSGTTLDAQTRYAEGTKNILESFFTGKFDYRPQDIILLNGEYVTKAYGKHDKK

In one data set the parent is B1. As to conditions: Pseudomonas putida (strain ATCC 47054 / DSM 6125 / CFBP 8728 / NCIMB 11950 / KT2440); pH 7.6; Fluorescence spectroscopy; whole UniProt chain shown.
With L7I R17V A28D A35R V49I E91D L96F L97H T99A E103I L110F S111V S115E L120R H121Y G123D T138Q D139G E140D Q144E A149D Q165D D174E A194E V217M Q222G K234H E237D P283A, the Tm stood at 83 °C. Still for that read-out and setting: next, R17V A28D V49I E91D L96F L97H T99A E103I T138Q D139G E140D Q144E A149D Q165D D174E A194E V217M Q222G K234H E237D P283A: 82 °C. Still for that read-out and setting: the same measure for L7I R17V A28D A35R E91D E103I L110F S111V S115E L120R H121Y G123D T138Q D139G E140D Q144E Q165D K234H E237D: 73 °C; for A9L S25F L110F G118A L120R H125R S169A D174E V217M S218P Q222G L232F E237D: 75 °C. Same read-out and setting: next, L7I R17V V49I Q165D V217M Q222G K234H P283A: 73 °C. As to A9L S25F D139G A149L A155V V279L, the Tm amounted to 68 °C.

Consider A9L S25F A54V D94E Q100R L110F A149L A155V V217M S218P Q222G, for which the Tm was 66 °C.

With L7I R17V A35R Q165D E237D, the Tm amounted to 75 °C. On the same count and under the same terms, the same measure for A9L S25F A54V E91D D94E L110F G118A L120R H125R D139G A149L S169A V217M S218P Q222G L232F E237D V279L: 70 °C; for L7I E91D L110F S111V Q165D D174E A194E V217M Q222G K234H E237D: 71 °C. As to L7I R17V V49I Q165D D174E V217M Q222G E237D P283A, the Tm came to 68 °C.

For S25F E91D D94E L110F G118A L120R H125R D139G A149L A155V S169A D174E, the Tm amounted to 75 °C.

A9L S25F A54V D139G S169A D174E E237D: the Tm amounted to 65 °C. On the same count and under the same terms, the same measure for A9L Q100R L110F G118A L120R H125R D139G L232F V279L: 74 °C; for V49I E91D L96F L97H T99A E103I L110F S111V S115E V217M Q222G: 65 °C. Same read-out and setting: the same measure for A9L S25F A54V E91D D94E Q100R L110F G118A L120R H125R D139G A149L A155V S169A D174E V217M S218P Q222G L232F E237D V279L: 74 °C; for L7I R17V A28D A35R V49I E91D L96F L97H T99A E103I Q165D V217M Q222G K234H E237D: 67 °C. Consider A9L S25F Q100R L110F G118A L120R H125R D139G A149L S169A E237D, for which the Tm worked out at 70 °C. The same measure, in the same setting: the same measure for A9L S25F A54V A149L V217M S218P Q222G L232F E237D: 66 °C; for A28D A35R V49I L110F S111V S115E L120R H121Y G123D T138Q D139G E140D Q144E A149D Q222G P283A: 74 °C. Same read-out and setting: the same measure for A9L S25F A54V E91D D94E Q100R L110F G118A L120R H125R D139G A149L V217M S218P Q222G L232F E237D: 83 °C. Same read-out and setting: next, L7I R17V A28D V49I E91D L96F L97H T99A E103I L110F S111V S115E L120R H121Y G123D T138Q D139G E140D Q144E A149D: 65 °C.

With L7I R17V A28D E91D L96F L97H T99A E103I L110F S111V S115E L120R H121Y G123D T138Q A149D Q165D, the Tm came to 71 °C.

In the case of L7I R17V A28D A35R L110F S111V S115E L120R H121Y G123D T138Q D139G E140D Q144E A149D Q165D D174E K234H E237D, the Tm came out at 65 °C.

As to A9L E91D D94E Q100R L110F G118A L120R H125R D139G A149L A155V S169A V217M S218P Q222G L232F V279L, the Tm was found to be 69 °C.

For L7I R17V A28D A35R V49I A149D D174E Q222G K234H E237D, the Tm turned out to be 69 °C. On the same count and under the same terms, next, L7I A194E Q222G K234H E237D: 65 °C; L7I R17V V49I Q165D V217M K234H E237D P283A: 68 °C; A9L S25F D139G A149L A155V: 68 °C.

The variants in the next data set derive from B2. As to conditions: Pseudomonas putida (strain ATCC 47054 / DSM 6125 / CFBP 8728 / NCIMB 11950 / KT2440); Fluorescence spectroscopy; whole UniProt chain shown.
On to Q192R A46P V159A, for which the Tm is 55 °C and the “ddG of mutation (higher = less stable)” value is -0.8 kcal/mol. The corresponding values for Q192R A46P V159A C129S D7H A178D are 54 °C and 1.5 kcal/mol. The matching figures for Q192R A46P V159A C129S A178D A88G N131D L143Q: 44 °C and -1.9 kcal/mol.

As for Q192R A46P V159A A48P, the Tm was found to be 55 °C and the “ddG of mutation (higher = less stable)” value was 3.3 kcal/mol. The matching figures for Q192R A46P V159A C129S: 51 °C and -0.6 kcal/mol. The matching figures for Q192R A46P V159A A48P Y179H: 55 °C and -0.3 kcal/mol.

In another data set the parent is B3. To be noted: Candida boidinii; whole UniProt chain shown.
With S333Y, the Tm was 55 °C.

Take A264P: the Tm was found to be 59 °C. In the case of A141M, the Tm came to 35 °C. Regarding N350W, the Tm was 54 °C. On the same count and under the same terms, next, C23S: 54 °C; D149L: 58 °C.

On to A10C, for which the Tm stood at 64 °C.
